Source: publication PMC5224480 (Nucleic Acids Research, 2016)

Target: T1, β subunit of Thermotoga maritima RNA polymerase (tmβ) (Thermotoga maritima, UniProt P29398 1-1263)
T1 sequence (looked up): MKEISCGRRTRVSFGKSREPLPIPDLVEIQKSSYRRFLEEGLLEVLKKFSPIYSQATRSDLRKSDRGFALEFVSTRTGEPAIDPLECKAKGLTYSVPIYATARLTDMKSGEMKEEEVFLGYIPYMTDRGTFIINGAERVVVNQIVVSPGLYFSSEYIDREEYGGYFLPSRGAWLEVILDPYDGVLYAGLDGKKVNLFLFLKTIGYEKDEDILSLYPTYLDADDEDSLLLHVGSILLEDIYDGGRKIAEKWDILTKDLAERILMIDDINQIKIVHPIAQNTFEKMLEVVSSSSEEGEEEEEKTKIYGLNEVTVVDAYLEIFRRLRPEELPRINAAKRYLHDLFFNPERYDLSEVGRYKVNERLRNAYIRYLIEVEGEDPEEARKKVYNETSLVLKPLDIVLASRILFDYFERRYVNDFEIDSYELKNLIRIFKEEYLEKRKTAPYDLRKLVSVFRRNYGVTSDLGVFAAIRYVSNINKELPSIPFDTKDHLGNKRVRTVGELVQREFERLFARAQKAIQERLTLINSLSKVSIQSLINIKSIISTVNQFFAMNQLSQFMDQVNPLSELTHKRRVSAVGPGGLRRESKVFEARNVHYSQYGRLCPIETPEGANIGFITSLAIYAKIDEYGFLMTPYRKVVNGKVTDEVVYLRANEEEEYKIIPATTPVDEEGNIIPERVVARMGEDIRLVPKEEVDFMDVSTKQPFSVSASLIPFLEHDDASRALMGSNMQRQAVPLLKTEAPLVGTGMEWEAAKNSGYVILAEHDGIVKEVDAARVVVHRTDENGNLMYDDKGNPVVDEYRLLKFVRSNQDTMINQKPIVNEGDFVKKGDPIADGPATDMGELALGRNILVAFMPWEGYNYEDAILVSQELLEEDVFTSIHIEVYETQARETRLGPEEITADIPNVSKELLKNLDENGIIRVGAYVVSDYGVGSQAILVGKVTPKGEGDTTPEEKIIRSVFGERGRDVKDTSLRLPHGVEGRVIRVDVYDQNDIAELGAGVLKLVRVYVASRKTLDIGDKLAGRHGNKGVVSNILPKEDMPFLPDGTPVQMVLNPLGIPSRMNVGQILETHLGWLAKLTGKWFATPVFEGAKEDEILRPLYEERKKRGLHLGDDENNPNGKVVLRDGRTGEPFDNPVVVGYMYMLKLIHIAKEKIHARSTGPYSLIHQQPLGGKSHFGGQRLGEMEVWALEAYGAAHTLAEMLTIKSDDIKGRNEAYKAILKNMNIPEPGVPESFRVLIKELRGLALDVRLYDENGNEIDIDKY
Test: NMR titration

binding result: binds
B1: tmNusG-DII (residues 42-233 of tmNusG) (domain or fragment, Thermotoga maritima, UniProt P29397 42-233, looked up)
chain: EEVVLDATSPSERLILSPKAKLHVNNGKDVNKGDLIAEEPPIYARRSGVIVDVKNVRKIVVETIDRKYTKTYYIPESAGIEPGLRVGTKVKQGLPLSKNEEYICELDGKIVEIERMKKVVVQTPDGEQDVYYIPLDVFDRDRIKKGKEVKQGEMLAEARKFFAKVSGRVEVVDYSTRKEIRIYKTKRRKLFP
